Each block holds one binder with its values, some of them ahead of it.
B2: E-cadherin (receptor, human, UniProt P12830 155-882, looked up)
chain: DWVIPPISCPENEKGPFPKNLVQIKSNKDKEGKVFYSITGQGADTPPVGVFIIERETGWLKVTEPLDRERIATYTLFSHAVSSNGNAVEDPMEILITVTDQNDNKPEFTQEVFKGSVMEGALPGTSVMEVTATDADDDVNTYNAAIAYTILSQDPELPDKNMFTINRNTGVISVVTTGLDRESFPTYTLVVQAADLQGEGLSTTATAVITVTDTNDNPPIFNPTTYKGQVPENEANVVITTLKVTDADAPNTPAWEAVYTILNDDGGQFVVTTNPVNNDGILKTAKGLDFEAKQQYILHVAVTNVVPFEVSLTTSTATVTVDVLDVNEAPIFVPPEKRVEVSEDFGVGQEITSYTAQEPDTFMEQKITYRIWRDTANWLEINPDTGAISTRAELDREDFEHVKNSTYTALIIATDNGSPVATGTGTLLLILSDVNDNAPIPEPRTIFFCERNPKPQVINIIDADLPPNTSPFTAELTHGASANWTIQYNDPTQESIILKPKMALEVGDYKINLKLMDNQNKDQVTTLEVSVCDCEGAAGVCRKAQPVEAGLQIPAILGILGGILALLILILLLLLFLRRRAVVKEPLLPPEDDTRDNVYYYDEEGGGEEDQDFDLSQLHRGLDARPEVTRNDVAPTLMSVPRYLPRPANPDEIGNFIDENLKAADTDPTAPPYDSLLVFDYEGSGSEAASLSSLNSSESDKDQDYDYLNEWGNRFKKLADMYGGGEDD
notes: Endogenous membrane protein in fixed human cells or tissue, detected through an unnamed primary antibody and a fractional-initiator secondary antibody probe
B3: β-catenin (other, human, UniProt P35222 2-781, looked up)
chain: ATQADLMELDMAMEPDRKAAVSHWQQQSYLDSGIHSGATTTAPSLSGKGNPEEEDVDTSQVLYEWEQGFSQSFTQEQVADIDGQYAMTRAQRVRAAMFPETLDEGMQIPSTQFDAAHPTNVQRLAEPSQMLKHAVVNLINYQDDAELATRAIPELTKLLNDEDQVVVNKAAVMVHQLSKKEASRHAIMRSPQMVSAIVRTMQNTNDVETARCTAGTLHNLSHHREGLLAIFKSGGIPALVKMLGSPVDSVLFYAITTLHNLLLHQEGAKMAVRLAGGLQKMVALLNKTNVKFLAITTDCLQILAYGNQESKLIILASGGPQALVNIMRTYTYEKLLWTTSRVLKVLSVCSSNKPAIVEAGGMQALGLHLTDPSQRLVQNCLWTLRNLSDAATKQEGMEGLLGTLVQLLGSDDINVVTCAAGILSNLTCNNYKNKMMVCQVGGIEALVRTVLRAGDREDITEPAICALRHLTSRHQEAEMAQNAVRLHYGLPVVVKLLHPPSHWPLIKATVGLIRNLALCPANHAPLREQGAIPRLVQLLVRAHQDTQRRTSMGGTQQQFVEGVRMEEIVEGCTGALHILARDVHNRIVIRGLNTIPLFVQLLYSPIENIQRVAAGVLCELAQDKEAAEAIEAEGATAPLTELLHSRNEGVATYAAAVLFRMSEDKPQDYKKRLSVELTSSLFRTEPMAWNETADLGLDIGAQGEPLGYRQDDPSYRSFHSGGYGQDALGMDPMMEHEMGGHHPGADYPVDGLPDLGHAQDLMDGLPPGDSNQLAWFDTDL
notes: Endogenous protein in fixed human cells or tissue, detected through an unnamed primary antibody and a fractional-initiator secondary antibody probe

How the values were obtained:
[1] = substrate: SON (human) (UniProt P18583); assay: HCR proximity imaging of the endogenous complex in fixed A-431 human cells; background from controls omitting the antibodies to one protein; SEM, N=3 cells
Chain of SON (human) (P18583 2-2426 limits assumed): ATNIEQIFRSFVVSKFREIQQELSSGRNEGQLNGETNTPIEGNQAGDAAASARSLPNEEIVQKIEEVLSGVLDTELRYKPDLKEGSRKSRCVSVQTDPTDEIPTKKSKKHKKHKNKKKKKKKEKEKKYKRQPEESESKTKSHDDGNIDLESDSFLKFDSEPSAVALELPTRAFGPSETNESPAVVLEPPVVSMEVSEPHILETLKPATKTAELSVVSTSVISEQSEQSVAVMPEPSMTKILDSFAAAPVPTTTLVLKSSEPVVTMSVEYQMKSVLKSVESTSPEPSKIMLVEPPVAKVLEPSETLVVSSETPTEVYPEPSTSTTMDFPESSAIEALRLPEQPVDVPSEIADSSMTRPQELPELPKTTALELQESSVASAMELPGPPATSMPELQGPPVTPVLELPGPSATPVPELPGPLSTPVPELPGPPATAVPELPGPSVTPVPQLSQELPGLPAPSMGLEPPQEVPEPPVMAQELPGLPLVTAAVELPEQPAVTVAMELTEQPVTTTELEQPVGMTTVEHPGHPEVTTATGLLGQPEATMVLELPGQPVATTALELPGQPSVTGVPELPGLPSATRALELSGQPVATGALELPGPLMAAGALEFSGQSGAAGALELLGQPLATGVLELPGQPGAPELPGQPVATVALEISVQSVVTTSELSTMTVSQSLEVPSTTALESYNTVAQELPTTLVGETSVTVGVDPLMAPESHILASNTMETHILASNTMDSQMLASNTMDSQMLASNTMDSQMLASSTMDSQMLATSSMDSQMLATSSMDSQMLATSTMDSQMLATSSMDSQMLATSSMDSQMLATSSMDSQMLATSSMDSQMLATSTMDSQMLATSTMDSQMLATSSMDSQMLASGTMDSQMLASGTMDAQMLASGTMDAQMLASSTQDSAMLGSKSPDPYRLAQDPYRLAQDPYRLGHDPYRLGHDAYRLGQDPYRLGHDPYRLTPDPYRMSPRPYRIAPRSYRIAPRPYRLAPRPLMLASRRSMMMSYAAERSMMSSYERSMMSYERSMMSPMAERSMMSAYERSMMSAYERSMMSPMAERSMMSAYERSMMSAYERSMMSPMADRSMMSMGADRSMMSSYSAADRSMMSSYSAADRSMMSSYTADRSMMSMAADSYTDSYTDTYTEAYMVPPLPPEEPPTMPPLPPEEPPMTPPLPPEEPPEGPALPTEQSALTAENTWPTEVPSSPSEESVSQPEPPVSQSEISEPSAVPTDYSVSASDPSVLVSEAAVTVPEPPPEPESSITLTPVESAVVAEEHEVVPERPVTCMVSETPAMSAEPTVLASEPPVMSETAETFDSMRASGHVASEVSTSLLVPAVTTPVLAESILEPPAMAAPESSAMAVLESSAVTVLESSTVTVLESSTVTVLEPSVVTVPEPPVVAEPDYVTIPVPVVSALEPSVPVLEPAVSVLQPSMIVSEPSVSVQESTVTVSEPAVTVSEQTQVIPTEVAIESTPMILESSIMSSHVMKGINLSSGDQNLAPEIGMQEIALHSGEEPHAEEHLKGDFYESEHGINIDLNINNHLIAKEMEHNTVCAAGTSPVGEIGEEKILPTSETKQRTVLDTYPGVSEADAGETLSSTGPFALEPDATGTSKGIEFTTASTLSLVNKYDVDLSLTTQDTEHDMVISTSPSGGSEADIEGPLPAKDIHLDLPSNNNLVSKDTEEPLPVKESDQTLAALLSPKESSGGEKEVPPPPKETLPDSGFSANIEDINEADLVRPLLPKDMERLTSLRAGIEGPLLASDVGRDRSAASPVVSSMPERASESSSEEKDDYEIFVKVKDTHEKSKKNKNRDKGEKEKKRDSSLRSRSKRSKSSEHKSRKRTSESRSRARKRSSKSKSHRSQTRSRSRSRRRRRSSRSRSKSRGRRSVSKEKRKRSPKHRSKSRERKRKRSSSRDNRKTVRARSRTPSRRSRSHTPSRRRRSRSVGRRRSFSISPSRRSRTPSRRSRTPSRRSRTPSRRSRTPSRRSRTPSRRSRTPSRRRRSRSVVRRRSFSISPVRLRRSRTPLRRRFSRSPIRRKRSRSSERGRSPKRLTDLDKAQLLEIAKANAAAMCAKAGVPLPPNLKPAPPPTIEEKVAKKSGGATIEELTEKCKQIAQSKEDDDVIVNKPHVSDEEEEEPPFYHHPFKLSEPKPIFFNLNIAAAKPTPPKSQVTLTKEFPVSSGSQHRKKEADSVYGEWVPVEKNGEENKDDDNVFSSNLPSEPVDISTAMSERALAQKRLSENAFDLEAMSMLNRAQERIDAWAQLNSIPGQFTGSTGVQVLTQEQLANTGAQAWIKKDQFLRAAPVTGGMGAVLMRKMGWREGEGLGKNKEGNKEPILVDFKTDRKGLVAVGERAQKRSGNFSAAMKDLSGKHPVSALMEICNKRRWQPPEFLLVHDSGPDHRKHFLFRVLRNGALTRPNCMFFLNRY

[2] = target: B3; assay: HCR proximity imaging; A-431 cells positive sample, HeLa cells negative sample
Procedure: (§1) For each pair of sample types, signal-to-background was calculated using the positive sample type to estimate signal plus background and the negative sample type to estimate background.
(§2) While A-431 cells formed the β-catenin:E-cadherin complex at the cell membrane of intercellular junctions,⁶³ HeLa cells express N-cadherin rather than E-cadherin^{64,65} and therefore lacked the β-catenin:E-cadherin complex.

[3] = target: B2; assay: HCR proximity imaging in FFPE human breast tissue section; background from a region with low/no complex; SEM, N=3 regions
Procedure: FIG. 16 depicts imaging the β-catenin:E-cadherin target complex in a highly autofluorescent FFPE human breast tissue section (5-μm thickness) using a pair of fractional-initiator probes, a proximity probe, and an HCR amplifier. Background was assessed by fluorescence in a region of the sample in which there is low/no abundance of the protein:protein complex. A high signal-to-background ratio was obtained (70±20) (standard error of the mean, N=3 representative regions).

[4] = target: B2; assay: HCR proximity imaging; normal against invasive lobular carcinoma FFPE human breast tissue sections; mean±SEM, N=3 sections
Procedure: as §1
The β-catenin:E-cadherin target complex was detected in highly autofluorescent FFPE human breast tissue sections. The β-catenin:E-cadherin complex is robustly formed in normal breast epithelial cells, but the expression of and interaction between the β-catenin and E-cadherin proteins is interrupted when breast epithelial cells become cancerous in the invasive lobular carcinoma disease process.^{66,67} Paired normal and invasive lobular carcinoma FFPE breast tissue sections from the same patient were evaluated for the β-catenin:E-cadherin target complex, yielding strong HCR signal in normal breast tissue (FIG. 45C; positive sample) and no visible staining in cancerous tissue (FIG. 45D; negative sample), with a signal-to-background ratio of 30±3 between the two tissue types (mean±SEM for representative regions of N=3 replicate sections).

[5] = target: B2; assay: HCR proximity imaging of the endogenous complex in fixed A-431 human cells; background from controls omitting the antibodies to one protein; SEM, N=3 cells
Procedure: For each protein:protein complex, background was assessed by technical controls in which the antibodies corresponding to one protein of the complex were omitted, simulating a scenario in which the two proteins are not in a complex with one another. For each of three protein:protein target complexes, a high signal-to-background ratio was obtained: 170±10 (SC35:SON), 50±10 (β-catenin:E-cadherin), and 140±10 (α-tubulin:β-tubulin) (standard error of the mean, representative regions within N=3 cells).

[6] = target: B2; assay: HCR proximity imaging; A-431 cells (positive) against HeLa cells (negative, lacking E-cadherin); mean±SEM, N=3 wells
Procedure: as §1, §2

signal-to-background ratio [1]: 170
B1: SC35 (protein, human, UniProt Q01130 2-221, looked up)
chain: SYGRPPPDVEGMTSLKVDNLTYRTSPDTLRRVFEKYGRVGDVYIPRDRYTKESRGFAFVRFHDKRDAEDAMDAMDGAVLDGRELRVQMARYGRPPDSHHSRRGPPPRRYGGGGYGRRSRSPRRRRRSRSRSRSRSRSRSRSRYSRSKSRSRTRSRSRSTSKSRSARRSKSKSSSVSRSRSRSRSRSRSRSPPPVSKRESKSRSRSKSPPKSPEEEGAVSS

Binder: B2
binding result [2]: binds

Binder: B3
signal-to-background ratio [3]: 70
signal-to-background ratio [4]: 30
signal-to-background ratio [5]: 50
signal-to-background ratio [6]: 26

Reference: patent US20240294983A1 (CALIFORNIA INSTITUTE OF TECHNOLOGY, published 2024)
